# Where a chain is given by its changes, count along the chain named.
# T1: recombinant human activated Factor VII (FVIIa) (human, UniProt P08709 61-212; P08709 213-466, Gla domain: ten glutamate residues may be gamma-carboxylated)
# T1 construct: two-chain form after cleavage between Arg152 and Ile153; light chain (Gla, EGF domains) and heavy chain (protease domain) tethered by a disulfide bond; also called rFVIIa; human FVIIa
# T1 sequence 1: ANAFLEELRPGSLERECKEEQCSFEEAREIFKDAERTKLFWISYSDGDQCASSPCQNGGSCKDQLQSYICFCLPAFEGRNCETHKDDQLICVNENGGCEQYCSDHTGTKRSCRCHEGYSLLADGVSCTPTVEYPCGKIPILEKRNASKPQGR
# T1 sequence 2: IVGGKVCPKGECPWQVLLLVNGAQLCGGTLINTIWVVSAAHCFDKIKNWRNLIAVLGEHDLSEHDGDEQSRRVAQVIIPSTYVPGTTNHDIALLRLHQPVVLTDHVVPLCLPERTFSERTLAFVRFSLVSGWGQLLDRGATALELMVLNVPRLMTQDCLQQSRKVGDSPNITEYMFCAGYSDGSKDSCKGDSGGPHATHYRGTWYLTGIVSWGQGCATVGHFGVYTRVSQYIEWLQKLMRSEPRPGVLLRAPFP
# T2: recombinant human activated FVII (FVIIa) (human, UniProt P08709 61-212; P08709 213-466, ten glutamate residues of the Gla domain may be gamma-carboxylated)
# T2 sequence 1: T1 sequence 1
# T2 sequence 2: T1 sequence 2
# T3: sTLT1 (SEQ ID No: 3 with six histidine residues added at the C-terminus) (human, UniProt Q86YW5 16-162)
# T3 construct: Soluble TLT-1 used in SPR
# T3 sequence: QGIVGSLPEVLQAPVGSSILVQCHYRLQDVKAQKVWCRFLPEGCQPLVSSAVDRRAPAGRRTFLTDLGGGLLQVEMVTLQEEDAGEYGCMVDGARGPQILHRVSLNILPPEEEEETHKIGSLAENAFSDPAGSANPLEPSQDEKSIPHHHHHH
# B1: mAb0001 (antibody, V domains shown)
# VH: EIQLQQTGPELVKPGASVKISCKASGYSFTDYIMVWMKQSQGKTLEWIGKINPYYGDISYNLKFKGKATLTVDKSSSTVYMQLNSLASEDSAVYYCARGFYYDYFDQWGQGTTLTVSS
# VL: DVMVTQTPLSLPVNLGDQASISCRSSQSLVHSNGNTYLHWYLQKPGQSPKLLIYRVSDRFSGVPDRFSGSGSGTDFTLKISRVEAEDLGVYFCSQSTHVPPTFGGGTKLEIK
# notes: fully murine, hybridoma-derived; also called 11F26
# B2: mAb0004 (antibody, V domains shown)
# VH: QVQLKESGPGLVAPSQSLSITCTVSGFSLTDYGVSWIRQPPGKGLEWLGVIWGGGNTYNNSALKSRLSISKDNSKSQVFLKMNSLQADDTAMYFCAKHGYYGYVMDYWGQGTSVTVSS
# VL: DIVMTQSHKIMSTLVGDRVSITCKASQDVDPAVAWYQQKPGQYPKLLIYWASTRHTGVPDRFTGSGSGTDFTLTISNVQSEDLADYFCQQYSKYPYTFGGGTKLEIK
# notes: fully murine, hybridoma-derived; also called 11F19
# B3: mAb0587 (antibody, V domains shown)
# VH: QVQLQQSGAELLKPGASVKISCKATDYTFSRYWIEWVKQRPGHGLEWIGEILPGSVNIKYNEIFKGKATFTAETSSNTAYMQLSSLTSEDSAVYYCTRTPYLQRGAYWGQGTLVTVSA
# VL: QIVLTQSPAIMSASPGEKVTITCSASSSVSYMFWFQQKPGTSPKLWIYSTSNLASGVPARFSGSGSGTSYSLTISRMEAEDAATYYCQQRSSYPLTFGAGTKLELK
# notes: fully murine, hybridoma-derived; also called 12F39
# B4: mAb0578 (antibody, V domains shown)
# VH: QVQLQQSGAELMKPGASVKISCKATGYTFNTYWIEWVKQRPGHGLEWIGEILPGRGTTNYNENFKGKATITADISSNTAYLQLSSLTGEDSAVYYCARLTPLSLRTGYWGQGTTLTVSS
# VL: DILLTQSPAILSVSPGERVSFSCRASQSIGTSIHWYQQRTNGSPRLLIKYASESISGIPSRFSGSGSGTDFTLSINSVESEDIADYYCQQSNSWPFTFGSGTKLEIK
# notes: fully murine, hybridoma-derived; also called 12F19
# B5: mAb0007 (antibody, V domains shown)
# VH: DVQLQESGPGLVEPSQSLSLTCTVTGYSITSDCAWSWIRQFPGNKLEWMGYINYSGSTNYNPSLKSRISITRDTSKNQFFLRLNSVTGEDTATYYCARSVNYYGNSFAVGYWGQGTSVTVSS
# VL: DIVMTQSPATLSVTPGDRVSLSCRASQSISDYLHWYQHKSHESPRLLIKYVSQPISGIPSRFSGSGSGSEFTLSINSVEPEDVGVYYCQNGHSFPLTFGAGTKLELK
# notes: fully murine, hybridoma-derived; also called 11F34
# B6: mAb0544 (antibody, V domains shown)
# VH: B5 VH with E13K, S36N, K76Q, Q78H, R82Q, N84S, G88A, A97T, T116I
# VL: DIVMSQSPATLSVTPGDRVSLSCRTSQDIGDYLHWYRQKSHESPRLLIKYTSQSVSGIPSRFSGSGSGSDFTLSINTVEPEDVGLYYCQNGHSFPLTFGTGTRLELK
# notes: fully murine, hybridoma-derived; also called 11F9
# B7: mAb0005 (antibody, V domains shown)
# VH: B5 VH with I70V, N84S, G88A, A97T
# VL: B5 VL with P15A, S28G, H38Q, V51T, I55V
# notes: fully murine, hybridoma-derived; also called 11F2; mAb005
# B8: mAb0552 (antibody, V domains shown)
# VH: B5 VH with E13K, S36N, Q78H, R82Q, G88A, N101D, Y103F, T119A
# VL: B5 VL with H38Q, V51S, P54S, E70D
# notes: fully murine, hybridoma-derived; also called 11F18
# B9: mAb0018 (antibody, V domains shown)
# VH: QITLKESGPGILKPSQTLSLTCSFSGFSLSTSGLGVGWIRQTSGKGLEWLAHIWWDDDKYYYPPLKSQLTISKDTSRNQVFLKITSVDTADTATYYCARRAFYDGYYGPMEYWGQGTSVTVSS
# VL: DIVLSQSPSSLAVSVGEKVTMSCKSSQSLLYSSNQKNSLAWYQHKPGQSPKLLIYWASTRESGVPDRFTGSGSGTDFTLTISNVKAEDLAVYYCHQYYNYLLTFGPGTKLELK
# notes: fully murine, hybridoma-derived; also called 8F19
# B10: biAb0098 (bispecific antibody, human IgG4 S228P, kappa)
# heavy 1: DVQLQESGPGLVEPSQTLSLTCTVSGYSITSDSAWSWIRQFPGKKLEWMGYIQYSGSTNYNPSLKSRVTISRDTSKNQFSLKLSSVTAEDTAVYYCARSVNYYGNSFAVDYWGQGTSVTVSSASTKGPSVFPLAPCSRSTSESTAALGCLVKDYFPEPVTVSWNSGALTSGVHTFPAVLQSSGLYSLSSVVTVPSSSLGTKTYTCNVDHKPSNTKVDKRVESKYGPPCPPCPAPEFLGGPSVFLFPPKPKDTLMISRTPEVTCVVVDVSQEDPEVQFNWYVDGVEVHNAKTKPREEQFNSTYRVVSVLTVLHQDWLNGKEYKCKVSNKGLPSSIEKTISKAKGQPREPQVYTLPPSQEEMTKNQVSLTCLVKGFYPSDIAVEWESNGQPENNYKTTPPVLDSDGSFLLYSKLTVDKSRWQEGNVFSCSVMHEALHNHYTQKSLSLSLGK
# light 1: EIVLTQSPATLSLSPGERATLSCRASQGISDYLHWYQQKPGEAPRLLIKYTSQPATGIPARFSGSGSGTDFTLTISSLEPEDVGVYYCQNGHSFPLTFGAGTKLELKRTVAAPSVFIFPPSDEQLKSGTASVVCLLNNFYPREAKVQWKVDNALQSGNSQESVTEQDSKDSTYSLSSTLTLSKADYEKHKVYACEVTHQGLSSPVTKSFNRGEC
# heavy 2: not shown
# light 2: DIVMTQTPLSSPVTLGQPASISCRSSQSLVHRNGNTYFHWLQQRPGQPPRLLIYKVSNRFSGVPDRFSGSGAGTDFTLKISRVEAEDVGVYYCSQSTHVPYTFGQGTKLEIKRTVAAPSVFIFPPSDEQLKSGTASVVCLLNNFYPREAKVQWKVDNALQSGNSQESVTEQDSKDSTYSLSSTLTLSKADYEKHKVYACEVTHQGLSSPVTKSFNRGEC
# notes: Duobody, constant domain type H (IgG4): anti-FVII(a) arm mAb0874, anti-TLT-1 arm mAb1047; also called mAb0874 x mAb1047
# B11: biAb0013 (bispecific antibody, human IgG4 S228P, kappa)
# heavy 1: B10 heavy 1
# light 1: B10 light 1
# heavy 2: not shown
# light 2: B10 light 2 with N33Q
# notes: Duobody, constant domain type H (IgG4): anti-FVII(a) arm mAb0874, anti-TLT-1 arm mAb1076; also called mAb0874 x mAb1076
# B12: biAb0018 (bispecific antibody, human IgG4 S228P, kappa)
# heavy 1: B10 heavy 1
# light 1: B10 light 1
# heavy 2: not shown
# light 2: B10 light 2 with N33P
# notes: Duobody, constant domain type H (IgG4): anti-FVII(a) arm mAb0874, anti-TLT-1 arm mAb1038; also called mAb0874 x mAb1038
# B13: biAb0093 (bispecific antibody, human IgG4 S228P, kappa)
# heavy 1: B10 heavy 1
# light 1: B10 light 1
# heavy 2: not shown
# light 2: B10 light 2
# notes: Duobody, constant domain type H (IgG4): anti-FVII(a) arm mAb0874, anti-TLT-1 arm mAb1049; also called mAb0874 x mAb1049
# Target: T1, recombinant human activated Factor VII …
# Test: SPR (Biacore T200), antibody captured on anti-murine IgG, FVIIa injected at 5-135 nM, 1:1 model
# Protocol: Anti-murine IgG (by GE Healthcare) was immobilised on a CM4 sensor chip using standard amine coupling chemistry kit (both supplied by GE Healthcare). […] The running buffer was prepared by diluting 10-fold the 10×HBS-P buffer (supplied by GE Healthcare) and supplemented with 1 mg/ml BSA and 5 mM CaCl₂) to give 10 mM HEPES, 150 mM NaCl, 0.05% v/v Polysorbate 20(P20), pH 7.4, 5 mM CaCl₂), 1 mg/ml bovine serum albumin (BSA). […] Regeneration of the chip was achieved using regeneration buffer consisting of 10 mM Gly-HCl pH 1.7 (supplied by GE Healthcare). Binding data were analysed according to a 1:1 model using BiaEvaluation 4.1 supplied by the manufacturer (Biacore AB, Uppsala, Sweden).
row,Kd,Binder
1,0.17 nM,B1
2,0.16 nM,B2
3,0.49 nM,B3
4,0.58 nM,B4
5,0.25 nM,B5
6,0.27 nM,B6
7,0.14 nM,B7
8,0.76 nM,B8
9,9.3 nM,B9

# Target: T1, recombinant human activated Factor VII …
# Test: cell-based or functional assay
AT inhibition (kinh %),TGT activity (% FVIIa),Binder
82%,109 % FVIIa,B1
24%,75 % FVIIa,B2
103%,93 % FVIIa,B3
77%,91 % FVIIa,B4
121%,113 % FVIIa,B5
111%,103 % FVIIa,B6
133%,115 % FVIIa,B7
118%,104 % FVIIa,B8
525%,141 % FVIIa,B9

# Target: T2, recombinant human activated FVII (FVIIa)
# Test: cell-based or functional assay
row,"Stimulation (fold): FXa generated by FVIIa with lipidated TLT-1 and 100 nM biAb, relative to free FVIIa",Binder
1,15.3 fold,B10
2,16 fold,B11
3,12.8 fold,B12
4,9.6 fold,B13

# Target: T2, recombinant human activated FVII (FVIIa)
# Test: dissociation constant listed with the stimulatory activities; method not given
row,Kd,Binder
1,16.2 nM,B10
2,16.2 nM,B11
3,16.2 nM,B12
4,16.2 nM,B13

# Target: T3, sTLT1 (SEQ ID No: 3 with six histidine …)
# Test: dissociation constant listed with the stimulatory activities; value of the anti-TLT-1 arm
row,Kd,Binder
1,75 nM,B10
2,2.9 nM,B11
3,19 nM,B12
4,320 nM,B13

# From US20220064329A1 (Novo Nordisk, published 2022)
